Reference: patent publication US20240025971A1

B1: AB-009244 (antibody, V domains shown)
VH: EVQLVESGGGLVQPGGSLRLSCAASGFAFNTYGINWVRQAPGKGLEWVSFISSRSTTIHYADSVRGRFTISRDNAKNSLYLQMNNLRDEDTAVYYCARDLLIWFGETGAFDIWGQGTMVTVSS
VL: EVVMTQSPATLSVSSGERVTLSCRASQSVSNNLAWYQQKPGQAPRLLIYGASTRATGFPARFSGSGSGTEFTLTISSLQSEDFAVYYCQQYNIWPPGTFGQGTKLEIK
B2: AB-009108 (antibody, V domains shown)
VH: QVQLQESGPGLVKPSETLALTCTVSGDSIINNNFYWGWLRQPPGQGLEWIGSLFHTGSAYYNSSLKSRVRSSVDTARNQISLRLSSVTAADTAVYYCARVNIVSVPAPPGAIEGWFDPWGQGTRVTVSP
VL: SYELTQPPSVSVSLGQTARISCSGDALPTKYVHWYQQKAGQAPVVVIFRDTERPSEIPERFSGSSSGTTVTLTISGVQAEDEADYYCQSVDGSGFYVFGSGTKVTVL
B3: AB-009231 (antibody, V domains shown)
VH: EVQLVESGGGLVQPGGSLRLSCAASGFTFSSYWMSWVRQAPGKGLEWVANIKQDGSEKYYVDSVKGRFTISRDNAKNSLYLQMNSLRAEDTAVYYCARVSMRFLEWSFYYYYYMDVWGKGTTVTVSS
VL: SSELTQDPAVSVALGQTVRITCQGDSLRSYYASWYQQKPGQAPVLVIYGKNNRPSGIPDRFSGSSSGNTASLTITGAQAEDEADYYCNSRDSSGNHLGVVFGGGTKLTVL
B4: AB-009237 (antibody, V domains shown)
VH: QVQLLQSGAEVKKPGASVSVSCKASGFTFTSYYFHWVRQAPGQGLEWMGIVSPAGGSTNYAQKFQGRVTMTRDTSTSTVHMELRNVRYDDTAVFYCARSVYCSSPSCPHGMDVWGPGTMVTVSS
VL: DIQVTQSPSTLSASVGDRVTITCRASQSILTYLAWYQQKPGKAPNLLIYKASNLQSGVPSRFSGSGSGTEFTLTISSLQPDDFATYHCQQYKSYPFSFGQGTKLAIK
B5: AB-009174 (antibody, V domains shown)
VH: QVQLQQWGAGLLKPSETLSLTCAVYGESFSGYYWNWIRQPPGKGLEWIGEIDQSGSTNYNPSLKSRVTISVDTSKNQFSLKLTSVTAADTAVYYCARVSGRMQLWLRAGYMDVWDKGTTVTVSS
VL: QSALTQPASVSGSPGQSITISCTGTSSDVGRYNYVSWYQQHPGKAPKLMIYEVSNRPSGVSNRFSGSKSGNTASLTISGLQAEDEADYYCSSYTTSSTRVFGGGTKLTVL
B6: AB-009202 (antibody, V domains shown)
VH: QVQLVESGGGVVQPGRSLRLSCAASGFTFSSYGMHWVRQAPGKGLEWVAVIWYDGSNKYYADSVKGRFTISRDNSKNTLYLQMNSLRAEDTAVYYCARDGGPEYYFDYWGQGTLVTVSS
VL: SYELTQPPSVSVSPGQTARITCSGDALPKQYAYWYQQKPGQAPVLVIYKDSERPSGIPERFSGSSSGTTVTLTISGVQAEDEADYYCQSADSSGTYNVVFGGGTKLTVL
B7: AB-009627 (antibody, V domains shown)
VH: QVQLQQWGAGLLKPSETLSLTCAVYGGSFSGYYWSWIRQPPGKGLEWIGEINHSGSTNYNPSLKSRVTISVDTSKNQFSLKLSSVTAADTAVFYCARGGYSSSWYGEKYWFDPWGQGTLVTVSS
VL: QSALTQPRSVSGSPGQSVTISCTGTSSDVGGYNYVSWYQQHPGKAPKLMIYDVSKRPSGVPDRFSGSKSGNTASLTISGLQAEDEADYYCCSYAGSPYVFGTGTKVTVL

Target: SARS-CoV-2 Spike (S) trimer (SARS-CoV-2), P0DTC2
Experiment: ELISA, S trimer coated, 1:50 dilution
Conditions: remark: other sources report otherwise

Binder | Optical Density (OD; 450 nm)
B1 | 0.239 OD450
B2 | 0.28 OD450
B3 | 0.46 OD450
B4 | 0.228 OD450
B5 | 0.154 OD450
B6 | 1.99 OD450
B7 | 0.823 OD450
